Experimental data taken from the supplement of paper PMC6757056.
± gives the standard deviation of the averaged measurements.

B1: library; a variant is named by its letters at N, in order (parent)
chain: GCUGUCACCGGUGCUUGGUACGUUAUAUUCAGCCGGUCUGAUGAGUCUNNNNNNAGACGAAACAGC

Columns and labels:
(6R,S)-folinic acid [1] = variants of: B1; experiment: normalized RNA/DNA level without ligand (relative to sTRSVctl = 100) (log10 (% of sTRSVctl)); HEK293T overexpressing SLC46A1; higher = less ribozyme self-cleavage, higher mRNA level; details: without (6R,S)-folinic acid; ligand present: no
Procedure, shortened: (§1)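 Ribozyme switch library plasmids linked to reporters were introduced into HEK293T cells at 4 µg per 6-well well, with ligand, if any, added 1 h before. Total RNA was extracted with EDTA 72 h later, reverse-transcribed, amplified, barcoded and sequenced. RNA level was computed from RNA over DNA reads relative to a spiked-in non-cleaving sequence or the top sequences, then scaled and log-transformed. The top set was 25 sequences, values were ×100 and log10, and the cutoff was ≥100 DNA reads.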

(6R,S)-folinic acid [2] = variants of: B1; experiment: normalized RNA/DNA level with ligand (relative to sTRSVctl = 100) (log10 (% of sTRSVctl)); HEK293T overexpressing SLC46A1; ligand concentration (+) RNA-Seq: 6 mM; higher = less ribozyme self-cleavage, higher mRNA level; details: with (6R,S)-folinic acid; ligand present: yes
Procedure, shortened: as §1

| Variant | normalized RNA/DNA level without ligand (log10) ((6R,S)-folinic acid [1]) | normalized RNA/DNA level with ligand (log10) ((6R,S)-folinic acid [2]) |
| --- | --- | --- |
| UAGUCA | 1.98 ± 0.021 | 2.01 ± 0.038 |
| UAGUCU | 2.0118 ± 0.0019 | 2.02 ± 0.037 |
| UAGUCG | 1.813 ± 0.0049 | 1.99 ± 0.043 |
| UAGUCC | 2.0087 ± 0.0016 | 2.03 ± 0.057 |
| AAUACG | 1.934 ± 0.0037 | 1.99 ± 0.056 |
| AAUACA | 1.998 ± 0.014 | 1.995 ± 0.015 |
| AAGUUU | 2.009 ± 0.017 | 2.01 ± 0.033 |
| AAGUUC | 2.031 ± 0.017 | 2.02 ± 0.054 |
| GAUAUU | 2.005 ± 0.0061 | 2.02 ± 0.041 |
| GAUAUC | 2.02 ± 0.018 | 2.03 ± 0.036 |
| UAUCGA | 1.927 ± 0.0098 | 2 ± 0.028 |
| UAUCGC | 2.014 ± 0.0075 | 2.03 ± 0.043 |
| UAUCGU | 1.947 ± 0.0084 | 2.01 ± 0.038 |
| CAUCAC | 2.03 ± 0.0083 | 2 ± 0.071 |
| CAUCAA | 1.977 ± 0.0041 | 1.97 ± 0.021 |
| CAUCAU | 2.02 ± 0.052 | 2 ± 0.072 |
| CAUCAG | 1.97 ± 0.039 | 1.97 ± 0.021 |
| CAUAAG | 1.95 ± 0.035 | 2.03 ± 0.035 |
| AAGUAU | 1.959 ± 0.011 | 2.02 ± 0.03 |
| GAUCAA | 2.001 ± 0.0021 | 2 ± 0.027 |
| GAUCAG | 2.03 ± 0.041 | 2.05 ± 0.028 |
| GAUCAC | 2.03 ± 0.031 | 2.034 ± 0.0087 |
| GAUCAU | 2.023 ± 0.008 | 2.02 ± 0.026 |
| CAUAUA | 1.954 ± 0.019 | 1.97 ± 0.036 |

| Variant | normalized RNA/DNA level without ligand (log10) ((6R,S)-folinic acid [1]) | normalized RNA/DNA level with ligand (log10) ((6R,S)-folinic acid [2]) |
| --- | --- | --- |
| CAUACC | 2.027 ± 0.004 | 2.03 ± 0.029 |
| CAUACU | 2.01 ± 0.018 | 2.03 ± 0.051 |
| CAUACG | 1.987 ± 0.0082 | 2 ± 0.023 |
| CAUACA | 2.001 ± 0.0091 | 1.98 ± 0.048 |
| UAUCAC | 1.978 ± 0.0043 | 1.99 ± 0.013 |
| CAUCGU | 2.05 ± 0.021 | 2.02 ± 0.025 |
| CAUCGA | 2.045 ± 0.0027 | 2.06 ± 0.026 |
| CAUCGG | 1.99 ± 0.024 | 2.02 ± 0.026 |
| GAUACC | 2.003 ± 0.0086 | 2.026 ± 0.0083 |
| GAUACU | 2.001 ± 0.0036 | 2.01 ± 0.036 |
| GAUCCC | 2.06 ± 0.033 | 2.0517 ± 0.00022 |
| GAUCCG | 2.0564 ± 0.0019 | 2.05 ± 0.063 |
| GAUCCA | 2.034 ± 0.0061 | 2.02 ± 0.039 |
| GAUCCU | 2.066 ± 0.02 | 2.06 ± 0.053 |
| CAGUUU | 1.989 ± 0.011 | 2.03 ± 0.039 |
| CAGUUG | 2.041 ± 0.0043 | 2.06 ± 0.013 |
| UAUAUU | 1.9864 ± 0.0015 | 2.01 ± 0.042 |
| UAUAUC | 2.027 ± 0.0026 | 2.01 ± 0.036 |
| UAUAUA | 1.944 ± 0.0099 | 2 ± 0.034 |
| CAGUGG | 1.91 ± 0.023 | 2.005 ± 0.0026 |
| CAGUGU | 2.015 ± 0.02 | 2.03 ± 0.025 |
| CAGUGA | 1.979 ± 0.011 | 2.007 ± 0.02 |
| CAGUGC | 2.011 ± 0.014 | 2 ± 0.026 |
| CAGUAU | 1.951 ± 0.0075 | 2.016 ± 0.013 |

| Variant | normalized RNA/DNA level without ligand (log10) ((6R,S)-folinic acid [1]) | normalized RNA/DNA level with ligand (log10) ((6R,S)-folinic acid [2]) |
| --- | --- | --- |
| CAUGCC | 2.058 ± 0.0046 | 2.029 ± 0.014 |
| CAUGCA | 1.996 ± 0.0096 | 2.01 ± 0.022 |
| CAUGAU | 1.97 ± 0.02 | 1.997 ± 0.012 |
| CAUGAC | 1.98 ± 0.024 | 2 ± 0.012 |
| CAUGAG | 1.942 ± 0.0092 | 2.006 ± 0.0049 |
| AAUAGC | 1.985 ± 0.013 | 2 ± 0.058 |
| GAUCUU | 2.031 ± 0.0082 | 2.02 ± 0.083 |
| GAUCUC | 2.0583 ± 0.00073 | 1.99 ± 0.035 |
| GAUCUA | 2.03 ± 0.024 | 2.027 ± 0.02 |
| GAUCUG | 2.008 ± 0.013 | 2.032 ± 0.0047 |
| CAUAGG | 1.911 ± 0.019 | 1.998 ± 0.0083 |
| CAUAGC | 1.9903 ± 0.00018 | 1.98 ± 0.047 |
| CAUAGA | 2.002 ± 0.0073 | 2.01 ± 0.033 |
| CAUAGU | 2.003 ± 0.013 | 2.025 ± 0.0053 |
| UAUGAA | 1.873 ± 0.016 | 1.98 ± 0.023 |
| UAUACA | 1.965 ± 0.003 | 2.01 ± 0.05 |
| UAUCCA | 1.979 ± 0.0079 | 2.001 ± 0.0084 |
| UAUCCC | 2.047 ± 0.0027 | 2.01 ± 0.042 |
| UAUCCU | 2.009 ± 0.0051 | 2 ± 0.048 |
| UAGUUA | 1.932 ± 0.015 | 1.984 ± 0.0094 |
| UAGUUC | 2.0145 ± 0.00068 | 2.03 ± 0.027 |
| UAGUUU | 2.01 ± 0.0059 | 2.02 ± 0.033 |
| GAGUCU | 2.0246 ± 0.001 | 2.02 ± 0.027 |
| GAGUCG | 1.984 ± 0.019 | 2 ± 0.034 |

| Variant | normalized RNA/DNA level without ligand (log10) ((6R,S)-folinic acid [1]) | normalized RNA/DNA level with ligand (log10) ((6R,S)-folinic acid [2]) |
| --- | --- | --- |
| GAGUUA | 2.008 ± 0.0034 | 2.03 ± 0.022 |
| GAGUUU | 2 ± 0.02 | 2.01 ± 0.037 |
| GAGUUC | 2.013 ± 0.02 | 2.025 ± 0.014 |
| UAUAAC | 1.98 ± 0.0056 | 2 ± 0.029 |
| AAUCCC | 2.023 ± 0.003 | 2 ± 0.043 |
| AAUCCG | 1.969 ± 0.014 | 2.02 ± 0.055 |
| UAUAGU | 1.874 ± 0.014 | 1.97 ± 0.041 |
| AAGUGG | 1.87 ± 0.01 | 2.02 ± 0.041 |
| AAGUGC | 1.984 ± 0.0023 | 2.01 ± 0.052 |
| UAGUGA | 1.8778 ± 0.0018 | 2 ± 0.025 |
| UAGUGU | 1.901 ± 0.008 | 1.99 ± 0.0065 |
| UAUGCA | 1.95 ± 0.027 | 2.01 ± 0.021 |
| AAUCGA | 1.974 ± 0.019 | 2 ± 0.029 |
| AAUCGU | 1.99 ± 0.0073 | 2.013 ± 0.0078 |
| CAUCCG | 2.083 ± 0.013 | 2.05 ± 0.028 |
| CAUCCC | 2.063 ± 0.0042 | 2.041 ± 0.011 |
| CAUCCA | 2.028 ± 0.006 | 1.99 ± 0.036 |
| CAUCCU | 2.06 ± 0.013 | 2.08 ± 0.058 |
| CAGUCC | 2.051 ± 0.011 | 2.04 ± 0.037 |
| CAGUCU | 2.018 ± 0.0006 | 2.03 ± 0.038 |
| CAGUCA | 1.967 ± 0.0097 | 1.96 ± 0.058 |
| GAUAAG | 1.917 ± 0.0057 | 2 ± 0.033 |
| AAUCAA | 1.973 ± 0.014 | 1.9902 ± 0.00064 |
| AAUCAU | 1.961 ± 0.0057 | 1.992 ± 0.011 |

| Variant | normalized RNA/DNA level without ligand (log10) ((6R,S)-folinic acid [1]) | normalized RNA/DNA level with ligand (log10) ((6R,S)-folinic acid [2]) |
| --- | --- | --- |
| AAUCAC | 2.008 ± 0.0074 | 2 ± 0.024 |
| AAUGAC | 1.9695 ± 0.0006 | 1.99 ± 0.037 |
| AAUGAU | 1.937 ± 0.012 | 2 ± 0.051 |
| AAGUCA | 1.969 ± 0.0021 | 1.98 ± 0.029 |
| AAGUCU | 2.066 ± 0.015 | 2.0681 ± 0.0013 |
| AAGUCC | 2 ± 0.023 | 2.01 ± 0.024 |
| GAGUAU | 1.982 ± 0.0044 | 2.014 ± 0.02 |
| AAUCUC | 2.068 ± 0.011 | 2.04 ± 0.034 |
| AAUCUG | 1.958 ± 0.0061 | 2.04 ± 0.048 |
| GAUCGA | 2.033 ± 0.008 | 2.02 ± 0.036 |
| GAUCGG | 2.084 ± 0.015 | 2.07 ± 0.04 |
| GAUCGU | 2.02 ± 9.8e-05 | 2.02 ± 0.052 |
| GAUCGC | 1.998 ± 0.016 | 2.032 ± 0.014 |
| UAUCUC | 2.053 ± 0.018 | 2.03 ± 0.027 |
| UAUCUG | 1.878 ± 0.017 | 2 ± 0.023 |
| UAUCUU | 2.007 ± 0.005 | 2.05 ± 0.021 |
| UAUCUA | 1.987 ± 0.0076 | 2.03 ± 0.028 |
| CAUCUA | 2.05 ± 0.022 | 2.074 ± 0.012 |
| CAUCUG | 2.03 ± 0.032 | 2.02 ± 0.025 |
| CAUCUU | 2.034 ± 0.0024 | 2 ± 0.038 |
